Molecular target: T1, MNV P domain (protruding domain of the capsid protein VP1 of murine norovirus) (murine norovirus (MNV), strain CW3, UniProt Q80J94 225-541)
T1 chain: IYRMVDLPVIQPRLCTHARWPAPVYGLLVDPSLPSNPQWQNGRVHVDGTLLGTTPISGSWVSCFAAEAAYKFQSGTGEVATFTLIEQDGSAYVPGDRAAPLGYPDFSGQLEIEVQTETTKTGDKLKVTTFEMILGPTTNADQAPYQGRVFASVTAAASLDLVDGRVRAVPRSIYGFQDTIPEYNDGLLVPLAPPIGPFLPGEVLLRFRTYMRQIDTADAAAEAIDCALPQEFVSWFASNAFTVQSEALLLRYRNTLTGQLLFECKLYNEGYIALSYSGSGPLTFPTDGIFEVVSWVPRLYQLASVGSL
Assay: ITC

B1: Nanobody NB-5829 (VHH)
VHH: QVQLQESGGGLVEAGGSLRLSCLGSGLTFSRYAMGWFRQAPGKEREFVASITRSGGSPNYADSVKGRFTISRDNAKNTVYLQMSSLKPEDTAVYYCAGRGSVYYDVWGQGTQVTVSS
  Kd: 1.4 nM

From paper doi:10.1101/2020.02.07.938506 (2020)
